For 2 molecules, Kd results are on record in patent publication US20130231277A1 (published 2013).

This experiment addresses T1, ectodomain of murine βKlotho (F53 to L995 of SEQ ID NO: 218) with a C-terminal FLAG tag (UniProt Q99N32 53-995).
T1 chain: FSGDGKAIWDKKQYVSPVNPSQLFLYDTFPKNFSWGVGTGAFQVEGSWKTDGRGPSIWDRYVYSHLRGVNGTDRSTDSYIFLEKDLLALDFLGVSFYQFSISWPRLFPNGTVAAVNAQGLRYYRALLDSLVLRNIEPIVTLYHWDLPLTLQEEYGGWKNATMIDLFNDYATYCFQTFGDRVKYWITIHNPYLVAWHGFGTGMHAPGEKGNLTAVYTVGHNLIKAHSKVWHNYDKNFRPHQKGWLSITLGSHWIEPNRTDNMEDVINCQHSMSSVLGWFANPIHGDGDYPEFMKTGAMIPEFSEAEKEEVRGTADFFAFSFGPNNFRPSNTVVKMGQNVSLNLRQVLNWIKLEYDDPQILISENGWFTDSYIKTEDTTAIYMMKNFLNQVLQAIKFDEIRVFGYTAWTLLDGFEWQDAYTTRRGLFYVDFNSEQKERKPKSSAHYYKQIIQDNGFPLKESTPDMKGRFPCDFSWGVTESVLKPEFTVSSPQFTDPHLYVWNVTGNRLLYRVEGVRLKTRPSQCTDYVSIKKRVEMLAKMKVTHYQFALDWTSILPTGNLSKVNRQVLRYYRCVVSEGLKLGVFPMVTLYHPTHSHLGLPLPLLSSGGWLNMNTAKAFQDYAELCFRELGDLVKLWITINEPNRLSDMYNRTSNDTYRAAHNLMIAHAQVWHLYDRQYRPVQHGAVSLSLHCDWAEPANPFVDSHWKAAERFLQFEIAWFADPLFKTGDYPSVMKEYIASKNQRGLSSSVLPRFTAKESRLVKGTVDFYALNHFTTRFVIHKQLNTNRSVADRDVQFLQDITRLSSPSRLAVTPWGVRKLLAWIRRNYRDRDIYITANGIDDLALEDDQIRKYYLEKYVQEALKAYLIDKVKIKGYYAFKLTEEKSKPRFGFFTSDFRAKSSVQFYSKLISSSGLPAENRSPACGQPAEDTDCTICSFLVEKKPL
Description: SPR. On the technique in general: Surface plasmon resonance follows binding to a sensor surface in real time, without labels.

By Kd is commonly meant a measure of binding affinity in units of concentration. A higher Kd goes with lower affinity.

B1: ligand-binding domain of human FGFR2c (N149 to E368 of SEQ ID NO: 226) (receptor)
chain: NNKRAPYWTNTEKMEKRLHAVPAANTVKFRCPAGGNPMPTMRWLKNGKEFKQEHRIGGYKVRNQHWSLIMESVVPSDKGNYTCVVENEYGSINHTYHLDVVERSPHRPILQAGLPANASTVVGGDVEFVCKVYSDAQPHIQWIKHVEKNGSKYGPDGLPYLKVLKAAGVNTTDKEIEVLYIRNVTFEDAGEYTCLAGNSIGISFHSAWLTVLPAPGREKE
Consider B1, for which the Kd amounted to 170 nM.

B2: ligand-binding domain of human FGFR1c (D142 to R365 of SEQ ID NO: 221) (receptor)
chain: DNTKPNRMPVAPYWTSPEKMEKKLHAVPAAKTVKFKCPSSGTPNPTLRWLKNGKEFKPDHRIGGYKVRYATWSIIMDSVVPSDKGNYTCIVENEYGSINHTYQLDVVERSPHRPILQAGLPANKTVALGSNVEFMCKVYSDPQPHIQWLKHIEVNGSKIGPDNLPYVQILKTAGVNTTDKEMEVLHLRNVSFEDAGEYTCLAGNSIGLSHHSAWLTVLEALEER
The molecule B2 showed an equilibrium dissociation constant (Kd) of 124 nM.
